{
  "source": "IntAct's records for PubMed 20711168",
  "parents": {"B1": {"name": "Dynamin-2 (Rattus norvegicus (Rat)), P39052 (parent)", "chain": "MGNRGMEELIPLVNKLQDAFSSIGQSCHLDLPQIAVVGGQSAGKSSVLENFVGRDFLPRGSGIVTRRPLILQLIFSKTEYAEFLHCKSKKFTDFDEVRQEIEAETDRVTGTNKGISPVPINLRVYSPHVLNLTLIDLPGITKVPVGDQPPDIEYQIKDMILQFISRESSLILAVTPANMDLANSDALKLAKEVDPQGLRTIGVITKLDLMDEGTDARDVLENKLLPLRRGYIGVVNRSQKDIEGRKDIRAALAAERKFFLSHPAYRHMADRMGTPHLQKTLNQQLTNHIRESLPTLRSKLQSQLLSLEKEVEEYKNFRPDDPTRKTKALLQMVQQFGVDFEKRIEGSGDQVDTLELSGGARINRIFHERFPFELVKMEFDEKDLRREISYAIKNIHGVRTGLFTPDLAFEAIVKKQVVKLKEPCLKCVDLVIQELISTVRQCTSKLSSYPRLREETERIVTTYIREREGRTKDQILLLIDIEQSYINTNHEDFIGFANAQQRSTQLNKKRAIPNQGEILVIRRGWLTINNISLMKGGSKEYWFVLTAESLSWYKDEEEKEKKYMLPLDNLKIRDVEKGFMSNKHVFAIFNTEQRNVYKDLRQIELACDSQEDVDSWKASFLRAGVYPEKDQAENEDGAQENTFSMDPQLERQVETIRNLVDSYVAIINKSIRDLMPKTIMHLMINNTKAFIHHELLAYLYSSADQSSLMEESAEQAQRRDDMLRMYHALKEALNIIGDISTSTVSTPVPPPVDDTWLQNTSSHSPTPQRRPVSSVHPPGRPPAVRGPTPGPPLIPMPVGATSSFSAPPIPSRPGPQNVFANNDPFSAPPQIPSRPARIPPGIPPGVPSRRAPAAPSRPTIIRPAEPSLLD"}},
  "data": [
    {"variants_of": "B1", "details": "with sh3k1_human SH3KBP1, Q96B97", "values": [
      {"variant": "P765A", "effect of a mutation on the interaction": "disrupting interaction"},
      {"variant": "P767A", "effect of a mutation on the interaction": "disrupting interaction"}
    ]}
  ]
}
